Experimental data reported in patent US20060154340A1.

Target: trypsin
Assay: cell-based or functional assay

Substance: TrxA-PI2JO fusion protein (thioredoxin fused to potato proteinase inhibitor II isomer PI2JO, from plasmid pKBEPI-5 in E. coli BL21trxB(DE3)) (from UniProt P0AA25 1-109)
- Trypsin inhibition activity (hydrolysis of TAME by trypsin followed at 247 nm; one unit = amount causing 50% inhibition of trypsin) (Trypsin-Inhibition-Unit/mL): 1390
